According to patent US8936785 (ESBATECH AN ALCON BIOMEDICAL RESEARCH UNIT, dated 2015):
Numbering of substitutions follows the chain as printed.

B1: TB-H_F68V_F70L (scFv)
scFv: DIVMTQSPSSLSASVGDRVTLTCTASQSVSNDVVWYQQRPGKAPKLLIYSAFNRYTGVPSRFSGRGYGTDFTLTISSLQPEDVAVYYCQQDYNSPRTFGQGTKLEVKRGGGGSGGGGSGGGGSSGGGSQVQLVQSGAEVKKPGASVKVSCTASGYTFTHYGMNWVRQAPGKGLEWMGWINTYTGEPTYADKFKDRVTLSLETSASTVYMELTSLTSDDTAVYYCARERGDAMDYWGQGTLVTVSS
B2: TB-H_F70L (scFv)
scFv: B1 scFv with V196F

Target: TNFα (tumour necrosis factor alpha) (UniProt P01375 77-233, limits assumed)
Test: cell-based or functional assay

Sequence of TNFα (tumour necrosis factor alpha) (P01375 77-233 limits assumed): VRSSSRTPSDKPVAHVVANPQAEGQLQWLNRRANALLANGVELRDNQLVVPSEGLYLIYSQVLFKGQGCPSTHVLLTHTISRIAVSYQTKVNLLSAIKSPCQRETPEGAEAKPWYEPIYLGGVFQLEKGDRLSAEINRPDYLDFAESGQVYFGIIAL

| Binder | Relative potency: EC50X/EC50ESBA105, L929 cells |
| --- | --- |
| B1 | 1.28 ratio EC50X/EC50ESBA105 |
| B2 | 2.7 ratio EC50X/EC50ESBA105 |
